Measurements taken from IntAct's records for PubMed 31831856.

B1: Iron-sulfur cluster assembly factor IBA57, mitochondrial (Homo sapiens), Q5T440 (parent)
chain: MATAALLRGATPGRGGPVWRWRLRAAPRCRLAHSSCSPGGDPTAGAAWACFRLDGRTLLRVRGPDAAPFLLGLLTNELPLPSPAAAGAPPAARAGYAHFLNVQGRTLYDVILYGLQEHSEVSGFLLECDSSVQGALQKHLALYRIRRKVTVEPHPELRVWAVLPSSPEACGAASLQERAGAAAILIRDPRTARMGWRLLTQDEGPALVPGGRLGDLWDYHQHRYLQGVPEGVRDLPPGVALPLESNLAFMNGVSFTKGCYIGQELTARTHHMGVIRKRLFPVRFLDPLPTSGITPGATVLTASGQTVGKFRAGQGNVGLALLWSEKIKGPLHIRASEGAQVALAASVPDWWPTVSK
partner: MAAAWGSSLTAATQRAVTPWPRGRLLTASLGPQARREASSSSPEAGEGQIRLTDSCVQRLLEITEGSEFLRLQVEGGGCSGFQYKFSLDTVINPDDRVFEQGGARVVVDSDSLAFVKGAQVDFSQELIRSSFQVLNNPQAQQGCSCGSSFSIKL

Variants of: B1
Conditions: with isca2_human ISCA2, Q86U28

| effect of a mutation on the interaction | Variant |
| --- | --- |
| disrupting interaction strength | MATAALLRGATPGRGGPVWRWRLRAAPRCRLAHSSCSPGGDPTAGAAWACFRLDGRTLLRVRGPDAAPFLLGLLTNELPLPSPAAAGAPPAARAGYAHFLNVQGRTLYDVILYGLQEHSEVSGFLLECDSSVQGALQKHLALYRIWRKVTVEPHPELRVWAVLPSSPEACGAASLQERAGAAAILIRDPRTARMGWRLLTQDEGPALVPGGRLGDLWDYHQHRYLQGVPEGVRDLPPGVALPLESNLAFMNGVSFTKGCYIGQELTARTHHMGVIRKRLFPVRFLDPLPTSGITPGATVLTASGQTVGKFRAGQGNVGLALLWSEKIKGPLHIRASEGAQVALAASVPDWWPTVSK [R146W] |
